Experimental data published in US20210115138A1 (WUXI BIOLOGICS IRELAND, published 2021).
Blank lines part the entries; values can stand above or below the binder they belong to.

What was measured:
human CD4 protein = human CD4 protein (human, UniProt P01730 26-390, limits assumed); test: ELISA, human CD4 coated at 1 ug/mL, antibody added at 0.67 and 6.7 nM, OD450
Procedure: (§1) Cross-reactivity to human CD4, CTLA-4 or CD28 was measured by ELISA. Plates were coated with human CD4, CTLA-4 or CD28 at 1 μg/mL overnight at 4° C. […] The plates were then washed and subsequently incubated with corresponding secondary antibody for 60 min. After washing, TMB substrate was added and the color reaction was stopped by 2M HCl.

[1] = target: T1, His-tagged human PD-1 protein (MW: 40 KD) (human, UniProt Q15116 25-167); test: SPR Biacore 8K; antibody captured on anti-human Fc, His-PD-1 injected
T1 construct: not shown: His tag
T1 sequence (Q15116 25-167 limits assumed): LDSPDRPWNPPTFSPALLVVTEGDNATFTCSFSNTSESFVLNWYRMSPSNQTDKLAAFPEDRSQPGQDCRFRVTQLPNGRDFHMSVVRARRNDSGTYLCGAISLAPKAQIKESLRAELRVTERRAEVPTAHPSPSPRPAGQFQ
Procedure: Binding affinity of the bispecific antibodies to the antigen were determined by SPR assay using Biacore 8K. PD-1×LAG-3 antibodies were captured on an anti-human IgG Fc antibody immobilized CMS sensor chip (GE).
(§2) The sensorgrams of blank surface and buffer channel were subtracted from the test sensorgrams. The experimental data was fitted by 1:1 model using Langmiur analysis.

mouse PD-1 protein = target: T2, mouse PD-1 protein (mouse, UniProt Q02242 25-167, limits assumed); test: ELISA, antibody coated on the plate, mouse PD-1 (His tag on the sheet) added at 0.25, 2.5 and 25 nM, OD450
T2 sequence (looked up): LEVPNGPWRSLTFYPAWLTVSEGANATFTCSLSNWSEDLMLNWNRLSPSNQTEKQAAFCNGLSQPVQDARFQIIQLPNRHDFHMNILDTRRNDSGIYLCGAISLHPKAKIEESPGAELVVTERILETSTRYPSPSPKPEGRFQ
Procedure: After blocking and washing, various concentrations of mouse PD-1 protein were added to the plates and incubated at room temperature for 1 hour. The plates were then washed and subsequently incubated with HRP-labeled goat anti-mouse IgG antibody for 1 hour. After washing, TMB substrate was added and the color reaction was stopped by 2M HCl. The absorbance at 450 nm was read using a microplate reader.

human LAG-3 on cells [2] = target: T3, human LAG-3 on cells (human, UniProt P18627 23-525); test: flow cytometry on human LAG-3 expressing 293F cells
T3 construct: whole, on cells; also called cell surface human LAG-3; human LAG-3 expressing 293F cells
T3 sequence (looked up): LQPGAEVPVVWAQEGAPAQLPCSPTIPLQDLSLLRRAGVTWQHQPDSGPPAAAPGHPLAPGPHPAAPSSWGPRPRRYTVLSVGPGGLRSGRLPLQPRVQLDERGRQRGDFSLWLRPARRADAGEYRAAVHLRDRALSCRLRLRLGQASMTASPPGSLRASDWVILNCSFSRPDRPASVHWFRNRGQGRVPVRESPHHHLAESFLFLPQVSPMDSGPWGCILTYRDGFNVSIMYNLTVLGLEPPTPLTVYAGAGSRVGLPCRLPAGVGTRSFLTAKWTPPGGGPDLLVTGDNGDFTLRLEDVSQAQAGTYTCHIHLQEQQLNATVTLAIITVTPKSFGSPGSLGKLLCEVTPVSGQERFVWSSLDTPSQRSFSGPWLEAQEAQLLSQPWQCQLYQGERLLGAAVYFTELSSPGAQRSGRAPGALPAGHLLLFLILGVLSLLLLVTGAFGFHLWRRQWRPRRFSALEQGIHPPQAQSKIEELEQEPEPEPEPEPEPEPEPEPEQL
Procedure: (§3) MFI of the cells was measured by flow cytometry and analyzed by FlowJo (version 7.6.1).

human CTLA-4 protein = target: T4, human CTLA-4 protein (human, UniProt P16410 36-161); test: ELISA, human CTLA-4 coated at 1 ug/mL, antibody added at 0.67 and 6.7 nM, OD450
T4 construct: extracellular domain
T4 sequence (P16410 36-161): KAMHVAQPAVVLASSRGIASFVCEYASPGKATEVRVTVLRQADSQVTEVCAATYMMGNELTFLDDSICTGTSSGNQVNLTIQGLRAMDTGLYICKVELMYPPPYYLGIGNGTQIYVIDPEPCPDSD
Procedure: as §1

human PD-1 on cells [3] = target: T5, human PD-1 on cells (human, UniProt Q15116 25-288); test: flow cytometry on human PD-1 expressing cells
T5 construct: whole, on cells; also called cell surface human PD-1; PD-1 expressing CHO-S cells
T5 sequence (Q15116 25-288): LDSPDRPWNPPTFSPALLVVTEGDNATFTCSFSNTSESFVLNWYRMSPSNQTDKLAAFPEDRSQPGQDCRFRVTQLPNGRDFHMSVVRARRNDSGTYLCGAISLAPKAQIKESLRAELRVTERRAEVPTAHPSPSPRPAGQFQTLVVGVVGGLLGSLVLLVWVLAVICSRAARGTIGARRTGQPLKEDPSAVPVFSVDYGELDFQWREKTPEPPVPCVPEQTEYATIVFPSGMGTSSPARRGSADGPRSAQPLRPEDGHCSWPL
Procedure: as §3

human PD-1 on cells [4] = target: T5, human PD-1 on cells; test: cell-based or functional assay
[5] = target: T6, mouse Fc-tagged human PD-1 protein (human, UniProt Q15116 25-170); test: dual-binding ELISA; mFc-PD-1 coated, antibody titrated, detected by His-tagged LAG-3 and anti-His-HRP; dual binding: PD-1 and LAG-3 protein together
T6 construct: extracellular domain; also called mouse Fc-tagged PD-1 protein; not shown: mouse Fc tag
T6 sequence (Q15116 25-170): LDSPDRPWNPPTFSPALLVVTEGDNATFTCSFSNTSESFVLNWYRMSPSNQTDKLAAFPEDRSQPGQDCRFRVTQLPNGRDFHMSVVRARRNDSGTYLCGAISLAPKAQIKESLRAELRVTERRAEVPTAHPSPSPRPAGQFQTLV

cynomolgus PD-1 on cells = target: T7, cynomolgus PD-1 on cells (cynomolgus, UniProt B0LAJ3 25-288); test: flow cytometry on cynomolgus PD-1 expressing 293F cells
T7 construct: also called cell surface cynomolgus PD-1
T7 sequence (B0LAJ3 entry or part of it limits assumed): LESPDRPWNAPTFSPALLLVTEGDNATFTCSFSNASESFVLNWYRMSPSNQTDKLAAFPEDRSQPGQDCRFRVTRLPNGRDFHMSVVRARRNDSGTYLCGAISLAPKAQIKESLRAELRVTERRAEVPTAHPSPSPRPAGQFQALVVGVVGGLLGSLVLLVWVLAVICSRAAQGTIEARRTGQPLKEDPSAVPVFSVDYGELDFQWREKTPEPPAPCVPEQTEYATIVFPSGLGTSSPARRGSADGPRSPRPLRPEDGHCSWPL
Procedure: (§4) MFI of the cells was measured by flow cytometry and analyzed by FlowJo.

Human LAG-3 without tag = target: T8, Human LAG-3 without tag (human, UniProt P18627 23-450); test: SPR; antibody immobilized, untagged human LAG-3 injected, single-cycle kinetics
T8 construct: extracellular domain; also called untagged LAG-3 ECD protein
T8 sequence (looked up): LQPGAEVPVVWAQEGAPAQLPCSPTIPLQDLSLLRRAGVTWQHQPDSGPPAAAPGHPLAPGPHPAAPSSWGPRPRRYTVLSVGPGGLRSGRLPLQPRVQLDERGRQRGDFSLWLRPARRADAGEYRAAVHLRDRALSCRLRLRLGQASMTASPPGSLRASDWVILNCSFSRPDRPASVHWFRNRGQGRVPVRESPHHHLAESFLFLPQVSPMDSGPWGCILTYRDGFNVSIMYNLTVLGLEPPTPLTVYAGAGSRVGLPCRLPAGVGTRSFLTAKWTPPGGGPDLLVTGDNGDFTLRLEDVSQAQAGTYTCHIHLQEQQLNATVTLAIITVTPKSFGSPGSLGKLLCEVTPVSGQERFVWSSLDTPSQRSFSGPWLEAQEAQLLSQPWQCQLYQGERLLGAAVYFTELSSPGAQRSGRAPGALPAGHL
Procedure: The chip was regenerated with 10 mM glycine (pH 1.5).
as §2

[6] = target: T9, cynomolgus LAG-3 on cells (cynomolgus); test: flow cytometry on cynomolgus LAG-3 expressing 293F cells
T9 construct: whole, on cells; also called cell surface cynomolgus LAG-3
Procedure: as §4

[7] = target: T10, mouse Fc-tagged human LAG-3 protein (human, UniProt P18627 23-450); test: ELISA; antibody coated, mFc-tagged LAG-3 titrated
T10 construct: extracellular domain; also called mouse Fc-tagged LAG-3 protein; not shown: mouse Fc tag
T10 sequence (looked up): T8 sequence (looked up)
Procedure: The plates were then washed and subsequently incubated with HRP-labeled goat anti-mouse IgG antibody for 1 hour. After washing, TMB substrate was added and the color reaction was stopped by 2M HCl. The absorbance at 450 nm was read using a microplate reader.

human LAG-3 on cells [8] = target: T3, human LAG-3 on cells; test: cell-based or functional assay
[9] = target: T6, mouse Fc-tagged human PD-1 protein; test: ELISA; antibody coated, mFc-tagged PD-1 titrated
human PD-1 on cells [10] = target: T5, human PD-1 on cells; test: flow cytometry; competition with mFc-PD-L1 on PD-1 expressing CHO-S cells
Procedure: The mixture was transferred into the 96-well plates seeded with PD-1 expressing CHO-S cells. […] The MFI was evaluated by flow cytometry and analyzed by the software FlowJo.

[11] = target: T10, mouse Fc-tagged human LAG-3 protein; test: flow cytometry; blocking of mFc-LAG-3 binding to MHC-II on Raji cells
Procedure: The mixture was transferred into the 96-well plates seeded with Raji cells which express MHC-II on the surface. […] The MFI was evaluated by flow cytometry and analyzed by the software FlowJo.

human CD28 protein = target: T11, human CD28 protein (human, UniProt P10747 19-152); test: ELISA, human CD28 coated at 1 ug/mL, antibody added at 0.67 and 6.7 nM, OD450
T11 construct: extracellular domain
Procedure: as §1

[12] = target: T12, human LAG-3 protein (Example 3) (human, UniProt P18627 23-450, limits assumed); test: ELISA; blocking of LAG-3 protein binding to Galectin-3; ELISA; blocking LAG-3 binding to Galectin-3
T12 construct: human is stated for the SPR test
T12 sequence (looked up): T8 sequence (looked up)

[13] = target: T12, human LAG-3 protein (Example 3); test: ELISA; blocking of LAG-3 protein binding to LSECtin; ELISA; blocking LAG-3 binding to LSECtin
[14] = target: cynomolgus LAG-3 (Example 3) (cynomolgus); test: method not stated
[15] = target: T12, human LAG-3 protein (Example 3); test: SPR; SPR, direct binding
human LAG-3 on cells [16] = target: T3, human LAG-3 on cells; test: FACS affinity test on cell surface human LAG-3
human LAG-3 on cells [17] = target: T3, human LAG-3 on cells; test: FACS on cell surface human LAG-3
[18] = target: T12, human LAG-3 protein (Example 3); test: FACS; blocking of LAG-3 protein binding to MHC-II on Raji cells; FACS; blocking LAG-3 binding to MHC-II on Raji cells
[19] = target: T6, mouse Fc-tagged human PD-1 protein; test: dual-binding ELISA; mFc-PD-1 coated, antibody titrated, detected by His-tagged LAG-3 and anti-His-HRP

binding result (human CD4 protein): no binding (tested: 6.7 nM)
Kd [1]: 2.46 nM
koff [1]: 0.000695 s⁻¹
kon [1]: 283000 M⁻¹ s⁻¹
binding result (mouse PD-1 protein): no binding (tested: 25 nM (mouse PD-1))
EC50 (human LAG-3 on cells [2]): 2.57 nM
binding result (human CTLA-4 protein): no binding (tested: 6.7 nM)
EC50 (human PD-1 on cells [3]): 1.32 nM
EC50 of NFAT pathways enhancement (luciferase reporter) (human PD-1 on cells [4]): 0.4 nM
EC50 [5]: 0.04 nM
EC50 (cynomolgus PD-1 on cells): 0.38 nM
Kd (Human LAG-3 without tag): < 0.0261 nM
koff (Human LAG-3 without tag): < 1e-05 s⁻¹
kon (Human LAG-3 without tag): 383000 M⁻¹ s⁻¹
EC50 [6]: 6.5 nM
EC50 [7]: 0.27 nM
EC50 of IL-2 pathways enhancement (luciferase reporter) (human LAG-3 on cells [8]): 0.92 nM
EC50 [9]: 0.07 nM
IC50 (human PD-1 on cells [10]): 1.01 nM
IC50 [11]: 2.2 nM
binding result (human CD28 protein): no binding (tested: 6.7 nM)
B1: W365-U6T1.G14-1.uIgG4.SP (bispecific antibody)
heavy: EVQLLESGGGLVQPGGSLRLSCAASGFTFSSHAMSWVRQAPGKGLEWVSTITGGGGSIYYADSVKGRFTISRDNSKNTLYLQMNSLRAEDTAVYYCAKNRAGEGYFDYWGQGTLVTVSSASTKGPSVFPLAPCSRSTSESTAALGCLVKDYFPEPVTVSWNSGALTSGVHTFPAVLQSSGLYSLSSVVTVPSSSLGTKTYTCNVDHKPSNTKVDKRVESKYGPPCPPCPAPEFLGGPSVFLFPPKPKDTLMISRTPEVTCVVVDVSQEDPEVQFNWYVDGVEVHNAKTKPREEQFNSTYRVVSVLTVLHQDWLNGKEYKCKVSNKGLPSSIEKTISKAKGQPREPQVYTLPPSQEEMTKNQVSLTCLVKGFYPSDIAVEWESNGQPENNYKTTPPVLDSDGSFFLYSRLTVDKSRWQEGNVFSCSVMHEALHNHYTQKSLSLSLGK
light: SYELTQPLSVSVALGQTARITCGGDNIGNKDVHWYQQKPGQAPVLVIYRDSNRPSGIPEGFSGSNSGNTATLTISRAQAGDEADYYCQVWDSIWVFGGGTKLTVLGQPKAAPSVTLFPPSSEELQANKATLVCLISDFYPGAVTVAWKADSSPVKAGVETTTPSKQSNNKYAASSYLSLTPEQWKSHKSYSCQVTHEGSTVEKTVAPTECSGGGGSGGGGSQLQLQESGPGLVKPSETLSLTCTVSGDSISSTSYYWGWIRQPPGKGLEWIGSFYYSGSTYYNPSLKSRVTISVDTSKNQFSLKLNSVTAADTAVYYCARMQLWSYDVDVWGQGTTVTVSSGGGGSGGGGSGGGGSQSALTQPASVSGSPGQSITISCTGTSSDVGGYDYVAWYQQHPGKVPKLMIYDVSERPSGVSNRFSGSKSGNTASLTISGLQAEDEADYYCSSYTSTTTLVVFGGGTKLSVL
notes: Anti-PD-1 (W3055-1.153.7) human IgG4 S228P; also called W365-G14; W365G-14

EC50 [12]: 0.56 nM
EC50 [13]: 0.51 nM
EC50 [14]: 3.92 nM
Kd [15]: 0.0106 nM
Kd (human LAG-3 on cells [16]): 0.053 nM
EC50 (human LAG-3 on cells [17]): 0.13 nM
EC50 [18]: 0.67 nM
B2: W3395-3.40.19 (antibody, V domains shown)
VH: QLQLQESGPGLVKPSETLSLTCTVSGDSISSTSYYWGWIRQPPGKGLEWIGSFYYSGSTYYNPSLKSRVTISVDTSKNQFSLKLNSVTAADTAVYYCARMQLWSYDVDVWGQGTTVTVSS
VL: QSALTQPASVSGSPGQSITISCTGTSSDVGGYDYVAWYQQHPGKVPKLMIYDVSERPSGVSNRFSGSKSGNTASLTISGLQAEDEADYYCSSYTSTTTLVVFGGGTKLSVL
notes: Fully human monoclonal anti-LAG-3 antibody; also called human W3395-3.40.19 LAG-3 Ab

binding result (human CD4 protein): no binding (tested: 6.7 nM)
Kd [1]: 2.16 nM
koff [1]: 0.000592 s⁻¹
kon [1]: 275000 M⁻¹ s⁻¹
binding result (mouse PD-1 protein): no binding (tested: 25 nM (mouse PD-1))
EC50 (human LAG-3 on cells [2]): 5.88 nM
binding result (human CTLA-4 protein): no binding (tested: 6.7 nM)
EC50 (human PD-1 on cells [3]): 1.34 nM
EC50 of NFAT pathways enhancement (luciferase reporter) (human PD-1 on cells [4]): 0.41 nM
EC50 [19]: 0.05 nM
EC50 (cynomolgus PD-1 on cells): 0.31 nM
Kd (Human LAG-3 without tag): 0.0265 nM
koff (Human LAG-3 without tag): 1.89e-05 s⁻¹
kon (Human LAG-3 without tag): 714000 M⁻¹ s⁻¹
EC50 [6]: 20.9 nM
EC50 [7]: 0.32 nM
EC50 of IL-2 pathways enhancement (luciferase reporter) (human LAG-3 on cells [8]): 0.32 nM
EC50 [9]: 0.07 nM
IC50 (human PD-1 on cells [10]): 1.09 nM
IC50 [11]: 1.68 nM
binding result (human CD28 protein): no binding (tested: 6.7 nM)
B3: W365-U6T1.G15-1.uIgG4.SP (bispecific antibody)
heavy: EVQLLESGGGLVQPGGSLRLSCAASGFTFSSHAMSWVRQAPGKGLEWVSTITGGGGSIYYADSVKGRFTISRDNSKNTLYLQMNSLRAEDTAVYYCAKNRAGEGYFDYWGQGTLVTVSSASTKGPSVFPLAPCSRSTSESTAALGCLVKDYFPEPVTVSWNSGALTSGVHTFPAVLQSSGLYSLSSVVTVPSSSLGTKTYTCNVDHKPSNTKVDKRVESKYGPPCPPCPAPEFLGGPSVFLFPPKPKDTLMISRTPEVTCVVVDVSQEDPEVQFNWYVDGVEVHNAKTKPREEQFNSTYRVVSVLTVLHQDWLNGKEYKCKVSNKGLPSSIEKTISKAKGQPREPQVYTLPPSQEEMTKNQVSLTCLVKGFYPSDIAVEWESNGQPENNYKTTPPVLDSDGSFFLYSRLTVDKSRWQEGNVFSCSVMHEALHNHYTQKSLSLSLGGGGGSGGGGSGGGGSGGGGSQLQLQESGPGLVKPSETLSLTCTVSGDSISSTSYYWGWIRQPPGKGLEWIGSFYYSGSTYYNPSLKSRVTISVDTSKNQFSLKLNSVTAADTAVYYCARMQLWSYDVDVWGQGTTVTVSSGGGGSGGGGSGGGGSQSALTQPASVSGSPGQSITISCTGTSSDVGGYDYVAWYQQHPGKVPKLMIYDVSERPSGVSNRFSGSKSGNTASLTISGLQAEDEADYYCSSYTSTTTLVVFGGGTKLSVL
light: SYELTQPLSVSVALGQTARITCGGDNIGNKDVHWYQQKPGQAPVLVIYRDSNRPSGIPEGFSGSNSGNTATLTISRAQAGDEADYYCQVWDSIWVFGGGTKLTVLGQPKAAPSVTLFPPSSEELQANKATLVCLISDFYPGAVTVAWKADSSPVKAGVETTTPSKQSNNKYAASSYLSLTPEQWKSHKSYSCQVTHEGSTVEKTVAPTECS
notes: Anti-PD-1 (W3055-1.153.7) human IgG4 S228P; also called W365-G15
